In this experiment the target is CD162 (P-selectin glycoprotein ligand-1), mouse, on MLL-AF9 AML blasts (mouse (endogenous in murine MLL-AF9 AML blasts)) (UniProt Q62170). The experiment is described as follows: flow cytometry on cells; E-selectin–IgM supernatant precomplexed with AF647 anti-human IgM F(ab)2, added to KIT+-enriched BM cells from leukemic mice (WT or Selplg-/- MLL-AF9 AML), 30 min on ice; gated on GFP+ KIT+ blasts; control: empty-vector IgM.
Sequence of UniProt Q62170 (Q62170 42-397): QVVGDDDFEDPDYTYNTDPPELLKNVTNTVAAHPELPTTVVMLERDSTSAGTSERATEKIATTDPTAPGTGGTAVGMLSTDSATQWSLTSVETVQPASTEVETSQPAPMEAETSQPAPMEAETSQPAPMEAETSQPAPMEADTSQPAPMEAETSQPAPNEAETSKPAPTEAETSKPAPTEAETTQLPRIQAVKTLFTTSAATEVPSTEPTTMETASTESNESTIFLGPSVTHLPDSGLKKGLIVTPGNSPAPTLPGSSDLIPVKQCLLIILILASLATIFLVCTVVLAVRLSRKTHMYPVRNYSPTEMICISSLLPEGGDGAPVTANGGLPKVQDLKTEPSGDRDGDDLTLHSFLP

“recombinant E-selectin–human-IgM fusion protein (from UniProt P16581 22-610)” returned a percent of gated AML blasts that bound E-selectin–IgM of 65%.

The record behind these values is publication PMC7393995.
